{"source": "paper PMC4245140", "about": "“Towards Engineering Hormone-Binding Globulins as Drug Delivery Agents” (PLoS ONE, 2014)", "molecules": {"B1": {"name": "CBG-T349R: Human CBG with P1 threonine of reactive centre loop mutated to arginine (protein, UniProt P08185 23-405, looked up, variant T349R)", "Corticosteroid-binding …": "MDPNAAYVNMSNHHRGLASANVDFAFSLYKHLVALSPKKNIFISPVSISMALAMLSLGTCGHTRAQLLQGLGFNLTERSETEIHQGFQHLHQLFAKSDTSLEMTMGNALFLDGSLELLESFSADIKHYYESEVLAMNFQDWATASRQINSYVKNKTQGKIVDLFSGLDSPAILVLVNYIFFKGTWTQPFDLASTREENFYVDETTVVKVPMMLQSSTISYLHDSELPCQLVQMNYVGNGTVFFILPDKGKMNTVIAALSRDTINRWSAGLTSSQVDLYIPKVTISGVYDLGDVLEEMGIADLFTNQANFSRITQDAQLKSSKVVHKAVLQLNEEGVDTAGSTGVTLNLRSKPIILRFNQPFIIMIFDHFTWSSLFLARVMNPV"}, "B2": {"name": "wild-type: Recombinant wild type human corticosteroid binding globulin expressed in E. coli (protein, UniProt P08185 23-405, looked up)", "Corticosteroid-binding …": "B1 Corticosteroid-binding … with R349T", "modifications": "expressed in E. coli"}, "B3": {"name": "CBG-Trp371Ala: Human CBG with binding pocket Trp 371 mutated to alanine (protein, UniProt P08185 23-405, looked up, variant W371A)", "Corticosteroid-binding …": "B1 Corticosteroid-binding … with R349T, W371A"}, "B4": {"name": "CBG-Trp371Arg: Human CBG with binding pocket Trp 371 mutated to arginine (protein, UniProt P08185 23-405, looked up, variant W371R)", "Corticosteroid-binding …": "B1 Corticosteroid-binding … with R349T, W371R"}}, "key": {"[1]": {"target": "prostate specific antigen (PSA) (Homo sapiens, UniProt P07288)", "sequence (P07288 25-261)": "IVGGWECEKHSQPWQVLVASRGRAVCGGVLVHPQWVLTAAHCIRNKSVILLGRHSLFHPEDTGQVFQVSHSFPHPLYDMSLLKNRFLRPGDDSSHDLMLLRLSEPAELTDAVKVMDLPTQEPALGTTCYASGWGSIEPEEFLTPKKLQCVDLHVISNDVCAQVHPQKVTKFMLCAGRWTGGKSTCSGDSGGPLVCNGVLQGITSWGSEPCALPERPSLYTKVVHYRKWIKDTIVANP", "assay": "Protease cleavage assay (SDS-PAGE) with prostate specific antigen", "assay_type": "biochemical", "details": "incubation 2-72 hours", "description": "(§1) Reactive loop cleavage is marked by a characteristic 4 kDa change in molecular weight following release of a peptide when the R-state CBG is unfolded, such as when it is subjected to the denaturing conditions of an SDS-PAGE [14], [22]. We used this as a convenient means by which to check the engineered protein's protease specificity and, as a corollary, its site specificity."}, "[2]": {"target": "T1, human neutrophil elastase (Homo sapiens, UniProt P08246)", "T1 sequence (P08246 30-267)": "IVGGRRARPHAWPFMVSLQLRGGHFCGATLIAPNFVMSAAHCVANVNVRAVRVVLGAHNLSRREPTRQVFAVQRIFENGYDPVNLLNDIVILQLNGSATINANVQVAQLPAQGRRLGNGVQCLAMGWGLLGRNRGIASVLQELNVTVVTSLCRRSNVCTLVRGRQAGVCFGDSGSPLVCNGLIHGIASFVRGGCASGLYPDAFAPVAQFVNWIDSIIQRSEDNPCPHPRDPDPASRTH", "assay": "Protease cleavage assay (SDS-PAGE) with human neutrophil elastase", "assay_type": "biochemical", "details": "protease:CBG 1:100, 37°C", "description": "as §1, with “To determine if a particular target protease is able to cleave the reactive centre loop of an engineered CBG variant, the protease was incubated with CBG at a molar ratio of 1∶100 at 37°C for half an hour unless otherwise specified. Reactive” for “Reactive”"}, "[3]": {"target": "T2, thrombin (Homo sapiens, UniProt P00734)", "T2 construct": "causes the zymogen, prothrombin, to be cleaved to produce enzymatically-active thrombin", "assay": "Protease cleavage assay (SDS-PAGE) with thrombin", "assay_type": "biochemical", "details": "protease:CBG 1:100, 37°C, half an hour", "description": "as §1, with “To determine if a particular target protease is able to cleave the reactive centre loop of an engineered CBG variant, the protease was incubated with CBG at a molar ratio of 1∶100 at 37°C for half an hour unless otherwise specified. Reactive” for “Reactive”"}, "[4]": {"assay": "Fluorimetric titration of L-T4-thyroxine-6-carboxyfluorescein with engineered CBG", "assay_type": "binding", "description": "(§2) Fluorescence spectroscopy was used to study the CBG-ligand interactions. Experiments were performed on an LS55 120V fluorescence spectrometer (Perkin Elmer), and the data were read and recorded using their proprietary FL WinLab software. For binding studies of CBG with cortisol, the excitation wavelength was set at 280 nm and the emission was detected at 350 nm, with a 315 nm cut-off filter used to prevent the excitation laser from leaching into the emission channel. For the binding studies of engineered CBG with L-T4-thyroxine-6-carboxyfluorescein, the excitation wavelength was set at 495 nm and emission was recorded at 520 nm whilst applying a 515 nm cut-off filter.\nL-T4-thyroxine-6-carboxyfluorescein was previously synthesised and purified as a 1.09 µM solution with acetonitrile as its solvent. This was diluted into a 5 nM solution with a buffer containing 10 mM Tris-HCl, pH 7.4, 150 mM NaCl, 1 mM EDTA, 0.1% v/v PEG 8000. Aliquots of the engineered CBG were titrated into 800 µl of this solution, and increments in fluorescence signal were monitored.\n(§3) In both cases, the data were fitted using Prism 5 (GraphPad Software) to the following equation to obtain the dissociation constant, Kd: [drawing 2] (2) where ΔF is the fluorescence change, ΔFM is the maximum change in fluorescence signal, [L]t is the total concentration of ligand added and [E]t is the total protein concentration."}, "[5]": {"assay": "Fluorimetric titration (intrinsic fluorescence quenching) of CBG with cortisol", "assay_type": "binding", "details": "physiological temperature (37°C)", "description": "CBG is known to bind cortisol with a one-to-one stoichiometry, [19]. Therefore, the dissociation constant, which is a measure of binding affinity, is given by the following equation: [drawing 1] (1) where [E]f is the concentration of free CBG, [L]f is the concentration of free ligand, and [E·L] is the concentration of the CBG-ligand complex.\nas §2\nThe cortisol stock solution was prepared by dissolving lyophilised cortisol (Sigma Aldrich) in 80% ethanol to make a 500 µM solution, which was then diluted with water to make solutions of 20, 40 and 80 µM, with water being used as a negative control. Aliquots of the ligand solutions were then titrated into 800 µl of a 200 nM solution of CBG made by diluting the protein stock with a buffer containing 10 mM Tris-HCl, pH 7.4, 150 mM NaCl, 1 mM EDTA, 0.1% v/v PEG 8000, and the decrease in fluorescence due to quenching was measured.\nas §3"}, "[6]": {"parameters": "method as in PMID 23783094", "details": "recombinantly expressed wild type CBG; cited from earlier work"}, "[7]": {"assay": "Biolayer interferometry of CBG on immobilised cortisol (ForteBio Octet Red)", "assay_type": "binding", "details": "CBG 0-10000 nM", "description": "Biolayer interferometry was carried out on a ForteBio Octet Red apparatus (ForteBio, Menlo Park, California, USA) to determine binding affinity where fluorescence quenching experiments would not work due to mutation of Trp 371, which is the main source of intrinsic fluorescence in the binding pocket. The system uses a change in interference pattern of reflected light to detect the change in optical thickness of the sensor tip. Cortisol was immobilised on the biosensor tip surface by forming an adduct of hydrocortisone 21-hemisuccinate and a pentylamine-biotin linker through an amide bond, then allowing the biotin moiety on this cortisol adduct to bind to the streptavidin-conjugated biosensor tip. The cortisol-conjugated sensors were immersed into wells of a shaking microtitre plate containing solutions of CBG at 0, 200, 500, 1000, 2500, 5000 and 10000 nM concentrations in a 10 mM Tris-HCl, pH 7.4, 150 mM NaCl, 1 mM EDTA, 0.1 mg/ml bovine serum albumin buffer, and analysed against an internal reference."}}, "note": "Substitutions are numbered along the chain they refer to. Numbers in names are those of the source.", "data": [{"molecule": "SALLSSDI: CBG variant with reactive centre loop segment STGVTLNL mutated to SALLSSDI (PSA substrate) (EEGVDTAGSALLSSDITSKPII)", "values": [{"measurement": "Cleavage of reactive centre loop by PSA", "setting": "[1]", "result": "cleavage of their respective reactive centre loops"}]}, {"molecule": "B1", "values": [{"measurement": "Cleavage by human neutrophil elastase", "setting": "[2]", "result": "further engineering would be required to remove elastase cleavage"}, {"measurement": "Cleavage of reactive centre loop by thrombin", "setting": "[3]", "result": "same susceptibility to cleavage by thrombin as the CBG-antitrypsinPittsburgh chimera"}, {"measurement": "Cleavage of reactive centre loop by thrombin", "setting": "[3]; listed as CBG-Thr349Arg", "result": "successfully cleaved by thrombin"}]}, {"molecule": "B2", "values": [{"measurement": "Cleavage of reactive centre loop by thrombin", "setting": "[3]", "result": "remained unreactive"}, {"measurement": "Cleavage of reactive centre loop by PSA", "setting": "[1]", "result": "no evidence of reactive centre loop cleavage"}, {"measurement": "Affinity for L-thyroxine-6-carboxyfluorescein", "setting": "[4]", "result": "no affinity"}, {"measurement": "Kd", "setting": "[5]; intact S-state, read-out: Kd for cortisol, S (uncleaved) conformation", "result": "279 ± 18", "unit": "nM"}, {"measurement": "Fold change in Kd (cortisol) on reactive centre loop cleavage, S to R", "setting": "[5]; disulphide mutants in absence of TCEP", "result": 2.6, "unit": "fold"}, {"measurement": "Kd", "setting": "[5]; reactive centre loop-cleaved R-state, read-out: Kd for cortisol, R (cleaved) conformation", "result": "734 ± 48", "unit": "nM"}, {"measurement": "Fold decrease in affinity for cortisol upon cleavage of reactive centre loop", "setting": "[6]", "result": 2.6, "unit": "fold"}]}, {"molecule": "B3", "values": [{"measurement": "Affinity for cortisol by biolayer interferometry", "setting": "[7]", "result": "no detectable affinity for cortisol"}]}, {"molecule": "B4", "values": [{"measurement": "Affinity for cortisol by biolayer interferometry", "setting": "[7]", "result": "no measurable affinity for cortisol"}, {"measurement": "Kd", "setting": "[4]; 25°C", "result": 840, "unit": "nM"}]}]}
